# In patent US20230330143A1 (GAMMADELTA THERAPEUTICS, published 2023):
# Target: Vδ1 chain-containing γδ TCR on γδ T cells
# Assay: cell-based or functional assay
Binder,T cell degranulation (EC50 µg/ml - 3 donors),Killing assay (EC50 µg/ml - 2 or 3 donors)
"1139_P01_E04 (antibody, V domains shown) VH: QVQLQQSGPGLVKPSQTLSLTCAISGDSVSSNSAAWNWIRQSPSRGLEWLGRTYYRSKWYNDYAVSVRSRITINPDTSKNQFSLQLNSVTPEDTAVYYCARSWNDAFDIWGQGTTVTVSS VL: DIVMTQSPSTLSASIGDRVTITCRAGQSISTWLAWYQQKPGKAPKLLIYDASSLESGVPLRFSGSGSGTDFTLTISSLQPEDFATYYCQQSYSTPLTFGGGTKVEIK",0.005 µg/mL,–
"1245_P01_E07 (antibody, V domains shown) VH: QVQLVESGGGLVKPGGSLRLSCAASGFTFSDYYMSWIRQAPGKGLEWVSYISSSGSTIYYADSVKGRFTISRDNAKNSLYLQMNSLRAEDTAVYYCARVDYADAFDIWGQGTLVTVSS VL: DIQMTQSPSSLSASVGDRVTIACRAGQSIGTYLNWYQQKPGKAPKLLIYVASSLQSGVPSRFSGSGSGTEFTLTISSLQPEDFATYYCQQSYSTLLTFGRGTKVEIK",–,0.06 µg/mL
"1252_P01_C08 (antibody, V domains shown, Anti-Vδ1 antibody with a lambda light chain) VH: EVQLLESGGGLVQPGRSLRLSCAASGFTVSSNYMSWVRQAPGKGLEWVSVIYSGGSTYYADSVKGRFTISRDNSKNTLYLQMNSLRAEDTAVYYCASPIELGAFDIWGQGTLVTVSS VL: SSYELTQPPSVSVAPGKTARITCGGNNIGSQSVHWYQQKPGQAPMLVIYYDSDRPSGIPERFSGSNSGNTATLTISRVEAGDEADYYCQVWDSSSDHVVFGGGTKLTVL",–,0.02 µg/mL

# Second part, led by results:
T cell degranulation (EC50 µg/ml - 3 donors),Binder,Killing assay (EC50 µg/ml - 2 or 3 donors)
0.001 µg/mL,"1245_P01_G09 (antibody, V domains shown) VH: QVQLQQSGPGLVKPSQTLSLTCAISGDSVSSNSAAWNWIRQSPSRGLEWLGRTYYGSKWYNEYALSVKSRIIINPDTSKNQFSLQLNSVTPEDTAVYYCARDYYYSMDVWGQGTLVTVSS VL: DIVMTQSPSTLSASIGDRVTITCRAGQSISTWLAWYQQKPGKAPKLLIYDASSLESGVPLRFSGSGSGTEFTLAISSLQPDDFATYYCQQSYSTPVTFGQGTKVEIK",–
0.001 µg/mL,"1245_P01_G06 (antibody, V domains shown) VH: QVQLVESGGGLVKPGGSLRLSCAASGFTFSDYYMSWIRQAPGKGLEWVSYISSSGSTIYYADSVKGRFTISRDNAKNSLYLQMNSLRAEDTAVYYCARHSWNDAFDVWGQGTLVTVSS VL: not shown",–
0.002 µg/mL,"1245_P02_G04 (antibody, V domains shown) VH: QVQLQQSGPGLVKPSQTLSLTCAISGDSVSSKSAAWNWIRQSPSRGLEWLGRTYYRSKWSTDYAASVKSRITINPDTSKNQLSLQLNSVTPEDTAVYYCARTWSGYVDVWGQGTLVTVSS VL: DIQMTQSPPALSASVGDRVTITCRASQDINDWLAWYQHKPGKAPKLLIYDASSLESGVPSRFSGSGSGTEFTLTISSLQPDDFATYYCQQSYSTPQVTFGQGTRLEIK",0.1 µg/mL
